In the assay the target is CTLA4 (cytotoxic T-lymphocyte-associated protein 4) (human) (UniProt P16410). The experiment in a line: cell-based or functional assay.

In patent US20230074793A1 one finds IL-2 secretion (ELISA of culture supernatants) from SEB-stimulated human PBMC treated 24 hours, versus anti-RSV isotype-control bivalent antibody XENP15074, IL-2 secretion (ELISA) from SEB-stimulated human PBMC, versus a mixture of the monovalent component antibodies XENP20111 (anti-PD1 scFv-Fc) and XENP20059 (anti-CTLA4 Fab-Fc) and IL-2 secretion (ELISA) from SEB-stimulated human PBMC, versus the bivalent anti-PD1 antibody XENP16432 data, which are given here for one substance.

CTLA4 (cytotoxic T-lymphocyte-associated protein 4) (human), sequence (P16410 36-223): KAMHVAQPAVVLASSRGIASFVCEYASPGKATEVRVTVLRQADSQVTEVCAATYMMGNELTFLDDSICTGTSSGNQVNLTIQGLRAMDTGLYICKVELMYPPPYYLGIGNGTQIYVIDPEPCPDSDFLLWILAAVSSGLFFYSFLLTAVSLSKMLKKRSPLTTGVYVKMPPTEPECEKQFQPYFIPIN

Regarding XmAb®20717 (bispecific antibody), the IL-2 secretion (ELISA of culture supernatants) from SEB-stimulated human PBMC treated 24 hours, versus anti-RSV isotype-control bivalent antibody XENP15074 was 4.1 fold; the IL-2 secretion (ELISA) from SEB-stimulated human PBMC, versus a mixture of the monovalent component antibodies XENP20111 (anti-PD1 scFv-Fc) and XENP20059 (anti-CTLA4 Fab-Fc) came to 1.6 fold; the IL-2 secretion (ELISA) from SEB-stimulated human PBMC, versus the bivalent anti-PD1 antibody XENP16432 is 1.5 fold.
